Patent publication US20070105162A1, “Monovalent avidin and streptavidin compositions” (Massachusetts Institute of Technology, priority 2005, published 2007)

Test: Biotin binding of avidin triple mutant (D4)
Protocol: After incubation at room temperature for 20 hr, the protein is precipitated by adding 50 μL to 200 μL 0.2 M ZnSO4 followed by 200 μL 0.2 M NaOH. The protein precipitate is pelleted by centrifugation at 16,500 g for 5 min. The biotin bound by D4 is calculated from the total ^3H-biotin added minus the ^3H-biotin in the supernatant. The Kd is obtained using a nonlinear regression analysis (one-site binding hyperbola) with SigmaPlot (Systat Software; Point Richmond, Calif.).
Methods provided in the Methods section above are used to make and test the monovalent avidin. We produce an avidin tetramer consisting of three subunits unable to bind biotin and one subunit that binds biotin as well as wild-type avidin. A triple mutant N12A, S16D, T35A is produced. […] The binding of this triple mutant (composed of “Dead” subunits-D) is so weak that it is difficult to measure. To generate monovalent avidin the wild-type subunit is first tagged with a His6-tag (“Alive” subunit-A). Then D and A subunits are combined at a molar ratio of 3:1 in guanidinium hydrochloride and refolded by rapidly diluting the mixture into PBS. This refold generates a mix of avidin tetramers of different compositions.

B1: D4 avidin: Avidin tetramer of four Dead subunits (N12A, S16D, T35A, SEQ ID NO:18) (protein)
chain: ARKCSLTGKWTADLGDNMTIGAVNSRGEFTGTYIAAVTATSNEIKESPLHGTQNTINKRTQPTFGFTVNWKFSESTTVFTGQCFIDRNGKEVLKTMWLLRSSVNDIGDDWKATRVGINIFTRLRTQKE
modifications: tetramer
Question: Which “biotin binding of avidin triple mutant” value does the source give for B1 here?
Answer: negligible biotin binding
